Drawing on paper PMC2930068, this text covers Kd and dH for 2 molecules.

Where two headings read alike, the source gives them in different places. Square brackets hold non-standard residues; d marks the D form. Ends that are not written are not given here. pS = N[C@@H](COP(=O)(O)O)C(=O)O

Assay [1] deals with importin α5 (79-538) in the ITC cell (human) (UniProt P52294). The experiment in a line: ITC. For orientation: Isothermal titration calorimetry measures the heat released or taken up as one component is titrated into another.
For assay [2] the target is unchanged. Briefly: ITC. This is another data set of the same source.

For orientation: Kd means the equilibrium constant for the complex coming apart. With KRPRSPSS (not fully specified) [unphosphorylated EBNA-1 NLS peptide (379-KRPRSPSS-386)], the Kd in assay [1] is 60 µM; in assay [2], 30 µM. The dH in assay [2] amounted to 6550 cal/mol.

The molecule KRPRSP[pS]S [phosphorylated EBNA-1 NLS peptide (379-KRPRSPpSS-386)] had a dH in assay [2] of 6950 cal/mol.
